According to paper PMC4134136 (PLoS ONE, 2014):

Target: the molecule itself
Assay: crystal structure; NOD1 CARD and Ub mixed 1:1, 1 mM each, in GF buffer (25 mM sodium phosphate, 25 mM NaCl, 5 mM DTT, pH 7.0); hanging drop, 100 mM PCB, 25% PEG 1500, pH 9.0 (crystals formed at pH ~8.6); 2.90 Å

B1: Caspase Recruitment Domain (CARD) of human NOD1, residues serine 16 to glycine 108 (domain or fragment)
chain: SHPHIQLLKSNRELLVTHIRNTQCLVDNLLKNDYFSAEDAEIVCACPTQPDKVRKILDLVQSKGEEVSEFFLYLLQQLADAYVDLRPWLLEIGLE
modifications: dimethyl-arsenic adduct on the sulfhydryl of Cys59 (formed in the crystallization buffer with cacodylate and DTT)
notes: NOD1, human, CARD, residues serine 16 to glycine 108; leucine and glutamic acid inserted between glycine 108 and the 6xHis-tag, from an XhoI restriction site; Purified as a monomer (gel filtration removed residual dimer); in the crystal a homodimer with swapped sixth helices; also called NOD1 CARD; CARD A
B1: binds.
